Earlier results on one substance are cited in article PMC10532679.

Where only a bound is given, the exact number is not on record here.

For data set [1], the target named is PKA-C (Homo sapiens) (UniProt P17612).
The target is the same in data set [2]. This is another data set of the same source.

The term Kd denotes the free concentration of one partner at which half of the binding sites on the other are occupied at equilibrium, for simple one-to-one binding. By Ki is commonly meant a measure of affinity in units of concentration, obtained from inhibition or displacement. In the case of PKA-RII (from UniProt P13861), the Kd in the data set with PKA-C (Homo sapiens) [1] is 0.1 nM. Moreover, the inhibition constant (Ki) with PKA-C (Homo sapiens) [2] was under 1 nM.
